From patent US20210054062A1
Substitutions are numbered along the chain they refer to.

B1: Reference anti-FAM19A5 antibody ("1-65") (antibody, V domains shown)
VH: AVTLDESGGGLQTPGGALSLVCKASGFTFSSYQMGWVRQAPGKGLEWVGVINKSGSDTSYGSAVKGRATISRDNGQSTVRLQLNNLRAEDTGTYFCAKGSASYITAATIDAWGHGTEVIVSS
VL: ALTQPSSVSANPGETVKITCSGGGSSGYGYGWYQQKSPSSAPLTVIYWNDKRPSDIPSRFSGSKSGSTHTLTITGVQAEDEAVYFCGNDDYSSDSGYVGVFGAGTTLTVL
B2: Anti-FAM19A5 antibody ("SS01-13-s5") (antibody, V domains shown)
VH: B1 VH with S19R, V21S, G49S, V50A, V79L, R80Y, L83M, N85S, G92A, T93V
VL: ALTQPSSVSANPGETARITCSGGASSGYGYGWYQQKPSSAPLTVIYKDSERPSDIPSRFSGSSSGSTHTLTISGVQAEDEAVYFCGNDDYSSDSGYVGVFGAGTTLTVL
B3: Anti-FAM19A5 antibody ("S5-SG") (antibody, V domains shown)
VH: AVTLDESGGGLQTPGGALRLSCKASGFTFSSYQMGWVRQAPGKGLEWVSAINKGGSDTSYGSAVKGRATISRDNGQSTLYLQMNSLRAEDTAVYFCAKGSASYITAATIDAWGHGTEVIVSS
VL: B2 VL

The binders below were run against Recombinant human FAM19A5 protein (His-tagged) (human) (UniProt Q7Z5A7) (assay: SPR, FAM19A5 immobilised on sensor chip, antibody as analyte, single cycle kinetics, 1:1 fit).
Recombinant human FAM19A5 protein (His-tagged) (human), sequence (Q7Z5A7 44-132): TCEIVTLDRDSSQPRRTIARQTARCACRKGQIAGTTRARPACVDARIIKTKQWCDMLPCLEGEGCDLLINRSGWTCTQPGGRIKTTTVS

Row | Kd | Binder
1 | 0.345 nM | B1
2 | 2.2 nM | B2
3 | 1.8 nM | B3

The binders below were run against human FAM19A5-Fc protein (human), Q7Z5A7 (assay: cell-based or functional assay).
human FAM19A5-Fc protein (human), Q7Z5A7, sequence (Q7Z5A7 44-132): as above

Row | amount of phagocytosis (uptake of pHrodo Green E. coli BioParticles by BV2 cells) compared to the control group (PBS alone), about 10 hours after BioParticles | Binder
4 | 86% | B1
5 | 96% | B2
6 | 89% | B3

Each binder was assayed against Recombinant human FAM19A5 protein (His-tagged) (human) (UniProt Q7Z5A7) (assay: SPR (Biacore): FAM19A5 protein immobilised on the sensor chip, antibody injected at 1.1 to 90 nM in single cycle kinetics mode, 1:1 binding fit).

Row | koff | kon | Binder
7 | 0.000567 s⁻¹ | 1.64e+06 M⁻¹ s⁻¹ | B1
8 | 0.000822 s⁻¹ | 373000 M⁻¹ s⁻¹ | B2
9 | 0.00183 s⁻¹ | 1.02e+06 M⁻¹ s⁻¹ | B3
